These results are taken from patent publication US10822723.

Data set [1] addresses GST-iBox, recombinant 38 amino acid Inka box, Inka1 (166-203) [GST: P08515].
Data set [2] has as its target 13aa synthetic peptide of the Inka1 iBox with Pro(0)Ser substitution.
For data set [3], the target named is 13aa synthetic peptide of the Inka1 iBox-C with Pro(0)Ser substitution.
Data set [4] deals with 13aa synthetic peptide of the PAK4 AID with Pro(0)Ser substitution.

B1: 6His-PAK1 (activated), PAK1 (1-545) (protein)
chain: MSNNGLDIQDKPPAPPMRNTSTMIGAGSKDAGTLNHGSKPLPPNPEEKKKKDRFYRSILPGDKTNKKKEKERPEISLPSDFEHTIHVGFDAVTGEFTGMPEQWARLLQTSNITKSEQKKNPQAVLDVLEFYNSKKTSNSQKYMSFTDKSAEDYNSSNALNVKAVSETPAVPPVSEDEDDDDDDATPPPVIAPRPEHTKSVYTRSVIEPLPVTPTRDVATSPISPTENNTTPPDALTRNTEKQKKKPKMSDEEILEKLRSIVSVGDPKKKYTRFEKIGQGASGTVYTAMDVATGQEVAIKQMNLQQQPKKELIINEILVMRENKNPNIVNYLDSYLVGDELWVVMEYLAGGSLTDVVTETCMDEGQIAAVCRECLQALEFLHSNQVIHRDIKSDNILLGMDGSVKLTDFGFCAQITPEQSKRSTMVGTPYWMAPEVVTRKAYGPKVDIWSLGIMAIEMIEGEPPYLNENPLRALYLIATNGTPELQNPEKLSAIFRDFLNRCLEMDVEKRGSAKELLQHQFLKIAKPLSSLTPLIAAAKEATKNNH
Regarding B1, in data set [1], the “kinase activity, phosphorylation of GST-Raf13 (in vitro kinase assay)” value was “does not affect PAK1”.

B2: 6His-PAK4cat, recombinant catalytic domain of PAK4 (286-591) (protein)
chain: PPGPRSPQREPQRVSHEQFRAALQLVVDPGDPRSYLDNFIKIGEGSTGIVCIATVRSSGKLVAVKKMDLRKQQRRELLFNEVVIMRDYQHENVVEMYNSYLVGDELWVVMEFLEGGALTDIVTHTRMNEEQIAAVCLAVLQALSVLHAQGVIHRDIKSDSILLTHDGRVKLSDFGFCAQVSKEVPRRKSLVGTPYWMAPELISRLPYGPEVDIWSLGIMVIEMVDGEPPYFNEPPLKAMKMIRDNLPPRLKNLHKVSPSLKGFLDRLLVRDPAQRATAAELLKHPFLAKAGPPASIVPLMRQNRTR
Take B2: the entries for the “phosphorylation of synthetic 13mer peptides in an array” value in data set [2], in data set [3] and in data set [4] were “Inka1-derived sequences were significantly better substrates”, “Inka1-derived sequences were significantly better substrates” and “The AID-based peptide was phosphorylated as efficiently as Raf1 Ser338”, respectively. For the same protein, the “kinase activity, phosphorylation of GST-Raf13 (in vitro kinase assay)” value in data set [1] is “is a potent of PAK4cat inhibitor in vitro”.
